# From US20030091594A1 (University of Pennsylvania, published 2003)
# Legend:
# [1] = target: T1, HIV-1/IIIB (HXBc2) gp120 pre-incubated with soluble CD4 (HIV-1); assay: 125I-gp120 binding to transfected 293T cells, with sCD4
# T1 construct: also called HXB/CD4; HIXB/CD4
# [2] = target: T1, HIV-1/IIIB (HXBc2) gp120 pre-incubated …; assay: cell-surface binding of 125I-gp120 with sCD4 to 293T cells transfected with CCR5
Binder,binding result [1],binding result [2]
"human CXCR4 (receptor, whole, on cells) MEGISIYTSDNYTEEMGSGDYDSMKEPCFREENANFNKIFLPTIYSIIFLTGIVGNGLVILVMGYQKKLRSMTDKYRLHLSVADLLFVITLPFWAVDAVANWYFGNFLCKAVHVIYTVNLYSSVLILAFISLDRYLAIVHATNSQRPRKLLAEKVVYVGVWIPALLLTIPDFIFANVSEADDRYICDRFYPNDLWVVVFQFQHIMVGLILPGIVILSCYCIIISKLSHSKGHQKRKALKTTVILILAFFACWLPYYIGISIDSFILLEIIKQGCEFENTVHKWISITEALAFFHCCLNPILYAFLGAKFKTSAQHALTSVSRGSSLKILSKGKRGGHSSVSTESESSSFHSS",binds,–
"human CCR5 (receptor, whole, on cells) not shown",–,no binding
